Assay results published in US20100310640A1 (published 2010).

Key:
HLA-DR DRB1*1501 [1] = target: HLA-DR DRB1*1501 (human); assay: radiolabeled-peptide inhibition, purified HLA-DR
HLA-DR DRB1*1501 [2] = target: HLA-DR DRB1*1501 (human); assay: radioligand inhibition, purified HLA-DR
HLA-DR DRB1*0401 [3] = target: HLA-DR DRB1*0401 (human); assay: radioligand inhibition, purified HLA-DR
HLA-DR DRB1*0701 [4] = target: HLA-DR DRB1*0701 (human); assay: radioligand inhibition, purified HLA-DR
HLA-DR DRB1*1501 [5] = target: HLA-DR DRB1*1501 (human); assay: radioligand inhibition, purified HLA-DR; remark: listed apart in the source
HLA-DR DRB1*0301 [6] = target: HLA-DR DRB1*0301 (human); assay: radioligand inhibition, purified HLA-DR
HLA-DR DRB1*1501 [7] = target: HLA-DR DRB1*1501 (human); assay: radioligand inhibition, purified HLA-DR; remark: listed apart in the source
HLA-DR DRB1*1302 [8] = target: HLA-DR DRB1*1302 (human); assay: radioligand inhibition, purified HLA-DR
HLA-DR DRB1*0101 [9] = target: HLA-DR DRB1*0101 (human); assay: radioligand inhibition, purified HLA-DR
HLA-DR DRB1*0101 [10] = target: HLA-DR DRB1*0101 (human); assay: radiolabeled-peptide inhibition, purified HLA-DR
HLA-DR DRB1*0301 [11] = target: HLA-DR DRB1*0301 (human); assay: radioligand inhibition, purified HLA-DR; remark: listed apart in the source
HLA-DR DRB3*0101 = HLA-DR DRB3*0101 (human); assay: radioligand inhibition, purified HLA-DR
HLA-DR DRB1*0401 [12] = target: HLA-DR DRB1*0401 (human); assay: radioligand inhibition, purified HLA-DR; remark: listed apart in the source
HLA-DR DRB1*0101 [13] = target: HLA-DR DRB1*0101 (human); assay: radioligand inhibition, purified HLA-DR; remark: listed apart in the source
HLA-DR DRB1*0701 [14] = target: HLA-DR DRB1*0701 (human); assay: radioligand inhibition, purified HLA-DR; remark: listed apart in the source
HLA-DR DRB1*1302 [15] = target: HLA-DR DRB1*1302 (human); assay: radioligand inhibition, purified HLA-DR; remark: listed apart in the source
HLA-DR DRB1*0701 [16] = target: HLA-DR DRB1*0701 (human); assay: radiolabeled-peptide inhibition, purified HLA-DR
HLA-DR DRB1*0401 [17] = target: HLA-DR DRB1*0401 (human); assay: radiolabeled-peptide inhibition, purified HLA-DR

B1: 9019.0068 (peptide)
peptide: ILLVVVLGVVFGILI
In the case of B1, the IC50 (HLA-DR DRB1*1501 [1]) is reported as 7.12 µM.

B2: 9019.0050 (peptide)
peptide: ITGYLYISAWPDSLP
With B2 the IC50 (HLA-DR DRB1*1501 [1]) was 0.152 µM.

B3: 9019.0064 (peptide)
peptide: LQGLPREYVNARHCL
In the case of B3, the IC50 (HLA-DR DRB1*1501 [1]) is reported as 0.423 µM.

B4: CEA.570 peptide 9012.0135 (peptide)
peptide: VCGIQNSVSANRSDP
B4 gave an IC50 (HLA-DR DRB1*1501 [2]) of 8.98 µM.

B5: Peptide 9019.0183 (peptide)
peptide: SEGGLVENHVDSTMN
Work on B5 yielded an IC50 (HLA-DR DRB1*0401 [3]) of 1.2 µM and an IC50 (HLA-DR DRB1*0701 [4]) of 4.62 µM.

B6: 9019.0002 (peptide)
peptide: GMSYLEDVRLVHRDL
B6 gave an IC50 (HLA-DR DRB1*1501 [1]) of 0.567 µM.

B7: Peptide 9019.0099 (peptide)
peptide: LQRYSEDPTVPLPSE
With B7 the IC50 (HLA-DR DRB1*1501 [5]) was 5.31 µM.

B8: 9019.0067 (peptide)
peptide: ISAVVGILLVVVLGV
With B8 the IC50 (HLA-DR DRB1*1501 [1]) was 6 µM.

B9: Cyclin D1.135 (peptide)
peptide: EELLQMELLLVNKLK
Work on B9 yielded an IC50 (HLA-DR DRB1*0301 [6]) of 3.39 µM.

B10: CEA.688 peptide 9019.05 (peptide)
peptide: TVGIMIGVLVGVALI
For B10, the IC50 (HLA-DR DRB1*1501 [2]) was 7.77 µM.

B11: Her2/neu.126 (peptide)
peptide: TTPVTGASPGGLREL
For B11, the IC50 (HLA-DR DRB1*1501 [7]) was 17.1 µM.

B12: CEA.10 peptide 9019.0104 (peptide)
peptide: RWCIPWQRLLLTASL
Work on B12 yielded an IC50 (HLA-DR DRB1*1501 [2]) of 0.061 µM.

B13: CEA.629 peptide 9019.0139 (peptide)
peptide: INGIPQQHTQVLFIA
B13 showed an IC50 (HLA-DR DRB1*1501 [2]) of 8.29 µM.

B14: 9019.0089 (peptide)
peptide: SDVWSYGVTVWELMT
B14 gave an IC50 (HLA-DR DRB1*1501 [1]) of 1.88 µM.

B15: 9019.0044 (peptide)
peptide: CYGLGMEHLREVRAV
B15 gave an IC50 (HLA-DR DRB1*1501 [1]) of 0.69 µM.

B16: CEA.603 peptide 9012.0137 (peptide)
peptide: SSYLSGANLNLSCHS
For B16, the IC50 (HLA-DR DRB1*1501 [2]) was 13 µM.

B17: Cyclin D1.56 (peptide)
peptide: MRKIVATWMLEVCEE
Binder B17 has an IC50 (HLA-DR DRB1*1501 [7]) of 0.087 µM.

B18: Peptide 9019.0102 (peptide)
peptide: GATLERPKTLSPGKN
In the case of B18, the IC50 (HLA-DR DRB1*1302 [8]) is reported as 5.33 µM, the IC50 (HLA-DR DRB1*0401 [3]) is reported as 2.79 µM and the IC50 (HLA-DR DRB1*0101 [9]) is reported as 1.81 µM.

B19: Peptide 9019.0022 (peptide)
peptide: APTIRGDPECHLFYN
Binder B19 has an IC50 (HLA-DR DRB1*1501 [5]) of 3.67 µM.

B20: 9019.0065 (peptide)
peptide: PSGVKPDLSYMPIWK
With B20 the IC50 (HLA-DR DRB1*0101 [10]) was 1.03 µM.

B21: CEA.680 peptide 9019.0144 (peptide)
peptide: SPGLSAGATVGIMIG
With B21 the IC50 (HLA-DR DRB1*1501 [2]) was 3.93 µM.

B22: CEA.123 peptide 9019.0119 (position 226) (peptide)
peptide: SDSVILNVLYGPDAP
B22 was tested, and the IC50 (HLA-DR DRB1*1501 [2]) was 0.351 µM.

B23: 1622.03 (peptide)
peptide: KIPVAIKVLRENTSP
Binder B23 has an IC50 (HLA-DR DRB1*1501 [1]) of 0.611 µM.

B24: Peptide 9019.0179 (peptide)
peptide: PERLAACGPPPVAPP
With B24 the IC50 (HLA-DR DRB1*1501 [5]) was 4.05 µM.

B25: CEA.671 peptide 9919.0143 (peptide)
peptide: SITVSASGTSPGLSA
In the case of B25, the IC50 (HLA-DR DRB1*1501 [2]) is reported as 3.11 µM.

B26: Peptide 1622.04 (peptide)
peptide: ICTIDVYMIMVKCWM
B26 was tested, and the IC50 (HLA-DR DRB1*1501 [5]) was 2.65 µM.

B27: Peptide 9019.0015 (peptide)
peptide: CAELVREPGCGCCSV
In the case of B27, the IC50 (HLA-DR DRB1*0301 [11]) is reported as 12.3 µM.

B28: Peptide 9019.0096 (peptide)
peptide: FRELVSEFSRMARDP
For B28, the IC50 (HLA-DR DRB3*0101) was 4.54 µM.

B29: Cyclin D1.129 (peptide)
peptide: DNSIRPEELLQMELL
In the case of B29, the IC50 (HLA-DR DRB1*1501 [7]) is reported as 4.76 µM.

B30: Her2/neu.263 (peptide)
peptide: ICELHCPALVTYNTD
B30 was tested, and the IC50 (HLA-DR DRB1*1501 [7]) was 0.748 µM.

B31: Cyclin D1.123 (peptide)
peptide: KLCIYTDNSIRPEEL
With B31 the IC50 (HLA-DR DRB1*1501 [7]) was 0.025 µM.

B32: CEA.624 peptide 9019.0138 (peptide)
peptide: QYSWRINGIPQQHTQ
For B32, the IC50 (HLA-DR DRB1*1501 [2]) was 2.07 µM.

B33: Her2/neu.120 (peptide)
peptide: GDPLNNTTPVTGASP
For B33, the IC50 (HLA-DR DRB1*0401 [12]) was 7.46 µM, the IC50 (HLA-DR DRB1*0101 [13]) was 6.36 µM and the IC50 (HLA-DR DRB1*0701 [14]) was 13.2 µM. For the same binder, the IC50 (HLA-DR DRB1*1302 [15]) was 1.03 µM.

B34: 9019.0061 (peptide)
peptide: GHCWGPGPTQCVNCS
Work on B34 yielded an IC50 (HLA-DR DRB1*0701 [16]) of 6.74 µM, an IC50 (HLA-DR DRB1*0101 [10]) of 1.91 µM and an IC50 (HLA-DR DRB1*0401 [17]) of 3.74 µM.

B35: Peptide 9019.0182 (peptide)
peptide: ELPLQALVMGEGTCE
For B35, the IC50 (HLA-DR DRB1*1302 [8]) was 9.17 µM, the IC50 (HLA-DR DRB1*0401 [3]) was 6.78 µM and the IC50 (HLA-DR DRB1*0101 [9]) was 1.5 µM. For the same binder, the IC50 (HLA-DR DRB1*0701 [4]) was 15.6 µM.

B36: Cyclin D1.150 (peptide)
peptide: WNLAAMTPHDFIEHF
Binder B36 has an IC50 (HLA-DR DRB1*0101 [13]) of 6.42 µM.

B37: Cyclin D1.252 (peptide)
peptide: EALLESSLRQAQQNM
Work on B37 yielded an IC50 (HLA-DR DRB1*1501 [7]) of 8.18 µM.

B38: 9019.0048 (peptide)
peptide: PESFDGDPASNTAPL
Work on B38 yielded an IC50 (HLA-DR DRB1*1501 [1]) of 0.805 µM.

B39: Peptide 9019.0095 (peptide)
peptide: RPRFRELVSEFSRMA
Work on B39 yielded an IC50 (HLA-DR DRB1*1501 [5]) of 0.348 µM.

B40: Peptide 9919.0173 (peptide)
peptide: LPRVGCPALPLPPPP
Work on B40 yielded an IC50 (HLA-DR DRB1*1302 [8]) of 8.94 µM, an IC50 (HLA-DR DRB1*0401 [3]) of 6.54 µM and an IC50 (HLA-DR DRB1*0101 [9]) of 1.91 µM.
